Measured values as given in patent US20220098266A1 (AKSTON BIOSCIENCES, published 2022).

Biological target: T1, human insulin receptor on human IM-9 cells (human, UniProt P06213 28-1382)
T1 construct: whole, on cells; The natural receptor is an alpha2-beta2 tetramer processed from one precursor; also called IR; human IR
Assay: flow cytometry competition with biotinylated RHI on IM-9 cells at 4 C
Experimental: Cultures of IM-9 cells were centrifuged at 250×g (˜1000 rpm) for 10 min to pellet the cells. Cells were washed once with HBSS or PBS buffer, resuspended in cold FACS staining medium (HBSS/2 mM EDTA/0.1% Na-azide+4% horse serum) to a concentration of 8×10^6 cells/mL and kept on ice or 4° C. until test solutions were made. The insulin-Fc protein was diluted in FACS buffer in 1:3 serial dilutions as 2× concentrations in 1.2 mL tubes (approx. 60 μL volume of each dilution), and the solutions were kept cold on ice until ready for pipetting.
Biotinylated-RHI was diluted in FACS staining medium to a concentration of 1.25 μg/mL. 40 μL of the serially diluted test compound and 8 μL of 1.25 μg/mL Biotin-RHI were added into each well of a V bottom microtiter plate, mixed by slow vortexing, and placed on ice. 40 μL of an IM-9 cell suspension (8×10^6 cells/mL) was then added to each well by multichannel pipette, mixed again gently and incubated on ice for 30 min to allow competitive binding on the insulin receptor on IM-9 cells. Cells were then washed twice with […], of ice-cold FACS wash buffer (HBSS/2 mM EDTA/0.1% Na-azide+0.5% horse serum) by centrifuging the V-bottom plate at 3000 rpm for 3 min and aspirating the supernatant. Cells were then resuspended in […], of FACS staining medium containing 1:100 diluted Streptavidin-PE (Life Technologies) for 20 min on ice. Cells were then washed once with 275 μL of ice-cold FACS buffer and finally fixed with 3% paraformaldehyde for 10 min at room temp. Cells were then washed once with 275 μL of ice-cold FACS buffer and resuspended in 250 μl of FACS buffer for analysis.
The V-bottom plates containing cells were then analyzed on a Guava 8-HT flow cytometer (Millipore). Biotinylated-RHI binding to insulin receptor was quantitated by the median fluorescence intensity (MFI) of the cells on the FACS FL-2 channel for each concentration of the test compound. Control wells were labeled only with biotinylated-RHI and were used to calculate the percent (%) inhibition resulting from each test compound concentration. The % inhibition by test compounds of biotinylated-RHI binding on IM-9 cells was plotted against log concentrations of the test compound, and the resulting IC50 values were calculated using GraphPad Prism (GraphPad Software, La Jolla, Calif.) for the test compounds.

T1 sequence (P06213 28-1382): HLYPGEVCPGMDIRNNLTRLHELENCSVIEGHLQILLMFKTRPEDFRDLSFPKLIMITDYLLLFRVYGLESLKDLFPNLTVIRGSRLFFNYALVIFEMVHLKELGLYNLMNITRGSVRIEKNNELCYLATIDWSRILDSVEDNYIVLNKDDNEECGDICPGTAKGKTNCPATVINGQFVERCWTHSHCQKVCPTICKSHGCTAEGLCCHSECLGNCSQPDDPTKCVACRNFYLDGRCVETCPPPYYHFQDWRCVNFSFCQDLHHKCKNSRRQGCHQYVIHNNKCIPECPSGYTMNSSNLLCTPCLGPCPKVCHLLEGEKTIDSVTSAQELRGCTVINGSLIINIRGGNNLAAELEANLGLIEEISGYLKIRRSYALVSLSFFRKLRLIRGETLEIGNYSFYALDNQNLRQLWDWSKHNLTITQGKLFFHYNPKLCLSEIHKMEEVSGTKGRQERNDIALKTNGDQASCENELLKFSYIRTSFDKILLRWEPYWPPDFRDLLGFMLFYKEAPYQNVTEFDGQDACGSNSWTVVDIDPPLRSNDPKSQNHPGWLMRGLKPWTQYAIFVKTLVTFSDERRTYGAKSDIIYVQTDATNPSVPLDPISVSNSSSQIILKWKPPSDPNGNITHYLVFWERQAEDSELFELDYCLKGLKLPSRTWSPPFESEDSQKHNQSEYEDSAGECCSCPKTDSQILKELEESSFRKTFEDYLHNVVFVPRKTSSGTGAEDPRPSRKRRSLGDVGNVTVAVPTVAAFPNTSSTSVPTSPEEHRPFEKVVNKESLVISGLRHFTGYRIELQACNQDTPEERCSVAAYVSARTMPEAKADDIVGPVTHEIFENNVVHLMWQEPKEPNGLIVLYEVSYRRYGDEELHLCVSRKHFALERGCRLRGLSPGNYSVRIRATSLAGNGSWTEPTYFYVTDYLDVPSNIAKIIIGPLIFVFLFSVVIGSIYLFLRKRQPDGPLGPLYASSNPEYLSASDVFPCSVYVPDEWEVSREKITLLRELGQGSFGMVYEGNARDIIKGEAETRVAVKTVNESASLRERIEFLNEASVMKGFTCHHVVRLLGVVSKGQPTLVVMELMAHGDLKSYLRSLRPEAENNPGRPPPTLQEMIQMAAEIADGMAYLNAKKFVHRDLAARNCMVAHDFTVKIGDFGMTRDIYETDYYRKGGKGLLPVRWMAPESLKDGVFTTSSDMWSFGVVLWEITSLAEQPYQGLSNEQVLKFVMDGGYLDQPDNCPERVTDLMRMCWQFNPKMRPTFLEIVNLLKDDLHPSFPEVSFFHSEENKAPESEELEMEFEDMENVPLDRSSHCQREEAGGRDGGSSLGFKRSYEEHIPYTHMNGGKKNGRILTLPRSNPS

Row | IC50 | Binder
1 | 2.73 µM | insulin-Fc fusion protein of SEQ ID NO: 20 (insulin polypeptide SEQ ID NO: 4, linker SEQ ID NO: 8, canine IgGA Fc fragment SEQ ID NO: 10) (Fc fusion) FVNQHLCGSDLVEALALVCGERGFFYTDPTGGGPRRGIVEQCCHSICSLYQLENYCNGGGGAGGGGRCTDTPPCPVPEPLGGPSVLIFPPKPKDILRITRTPEVTCVVLDLGREDPEVQISWFVDGKEVHTAKTQSREQQFNGTYRVVSVLPIEHQDWLTGKEFKCRVNHIDLPSPIERTISKARGRAHKPSVYVLPPSPKELSSSDTVSITCLIKDFYPPDIDVEWQSNGQQEPERKHRMTPPQLDEDGSYFLYSKLSVDKSRWQQGDPFTCAVMHETLQNHYTDLSLSHSPG
2 | 0.147 µM | insulin-Fc fusion protein of SEQ ID NO: 29 (SEQ ID NO: 24 with des hinge D and the mutation cNg-NB138-K; canine IgGB Fc fragment SEQ ID NO: 15) (Fc fusion, Made in HEK293 cells; Non-glycosylated homodimer, 98.1% homodimer; also called cNg-K) FVNQHLCGSDLVEALALVCGERGFFYTDPTGGGPRRGIVEQCCHSICSLYQLENYCNGGGGAGGGGCPKCPAPEMLGGPSVFIFPPKPKDTLLIARTPEVTCVVVDLDPEDPEVQISWFVDGKQMQTAKTQPREEQFKGTYRVVSVLPIGHQDWLKGKQFTCKVNNKALPSPIERTISKARGQAHQPSVYVLPPSREELSKNTVSLTCLIKDFFPPDIDVEWQSNGQQEPESKYRTTPPQLDEDGSYFLYSKLSVDKSRWQRGDTFICAVMHEALHNHYTQESLSHSPG
3 | 0.028 µM | insulin-Fc fusion protein of SEQ ID NO: 24 (insulin polypeptide SEQ ID NO: 4, linker SEQ ID NO: 8, canine IgGB Fc fragment SEQ ID NO: 11) (Fc fusion, Made in HEK293 cells; Disulfide-linked homodimer, 93% homodimer; Glycosylated at cNg-NB139) FVNQHLCGSDLVEALALVCGERGFFYTDPTGGGPRRGIVEQCCHSICSLYQLENYCNGGGGAGGGGDCPKCPAPEMLGGPSVFIFPPKPKDTLLIARTPEVTCVVVDLDPEDPEVQISWFVDGKQMQTAKTQPREEQFNGTYRVVSVLPIGHQDWLKGKQFTCKVNNKALPSPIERTISKARGQAHQPSVYVLPPSREELSKNTVSLTCLIKDFFPPDIDVEWQSNGQQEPESKYRTTPPQLDEDGSYFLYSKLSVDKSRWQRGDTFICAVMHEALHNHYTQESLSHSPG
4 | 0.145 µM | insulin-Fc fusion protein of SEQ ID NO: 27 (SEQ ID NO: 24 with the mutation cNg-NB139-S; canine IgGB Fc fragment SEQ ID NO: 14) (Fc fusion, Made in HEK293 cells; Non-glycosylated homodimer, 98.3% homodimer; also called cNg-S) FVNQHLCGSDLVEALALVCGERGFFYTDPTGGGPRRGIVEQCCHSICSLYQLENYCNGGGGAGGGGDCPKCPAPEMLGGPSVFIFPPKPKDTLLIARTPEVTCVVVDLDPEDPEVQISWFVDGKQMQTAKTQPREEQFSGTYRVVSVLPIGHQDWLKGKQFTCKVNNKALPSPIERTISKARGQAHQPSVYVLPPSREELSKNTVSLTCLIKDFFPPDIDVEWQSNGQQEPESKYRTTPPQLDEDGSYFLYSKLSVDKSRWQRGDTFICAVMHEALHNHYTQESLSHSPG
